{"source": "patent US20180163218", "test_in_all_cases": "cell_activity", "key": {"[1]": {"tested_on": "eZFN4-HF zinc finger nuclease (high fidelity FokI)", "conditions": "soybean F1, AtUbi10 promoter; chimeric excision 10.68%"}, "[2]": {"tested_on": "eZFN4 zinc finger nuclease (FokI)", "conditions": "soybean F1, AtUbi3 promoter; chimeric 4.43%; with CsVMV promoter 0.00% complete, 1.58% chimeric"}, "[3]": {"tested_on": "eZFN14 zinc finger nuclease (FokI)", "conditions": "soybean F1, CsVMV promoter; complete excision 0.00%"}, "[4]": {"tested_on": "eZFN2 zinc finger nuclease (FokI)", "conditions": "maize; two identical sites flanking aad-1 cassette; 23 of 621 plants"}}, "data": [{"sequence": "GCCTTTTGCAGTTTATCTCTATGCCCGGGACAAGTG (double strand) [eZFN4 binding site]", "values": [{"measurement": "activity (% complete excision)", "setting": "[1]", "value": 1.23}, {"measurement": "activity (% complete excision)", "setting": "[2]", "value": 0.13}]}, {"sequence": "TGGTCATCCTCATCCTGTCTATGCCCGGGACAAGTG (double strand) [eZFN14 binding site]", "values": [{"measurement": "activity (% chimeric excision)", "setting": "[3]", "value": 2.82}]}, {"sequence": "AAGACTCCCGCCCATCTCTCTATGCCCGGGACAAGTG (double strand) [eZFN2 binding site]", "values": [{"measurement": "activity (% F1 plants with aad-1 excised)", "setting": "[4]", "value": 3.7}]}]}
